T1: EsCas13d, nuclease-dead (Eubacterium siraeum, UniProt B0MS50, R295A;H300A;R849A;H854A)
T1 sequence: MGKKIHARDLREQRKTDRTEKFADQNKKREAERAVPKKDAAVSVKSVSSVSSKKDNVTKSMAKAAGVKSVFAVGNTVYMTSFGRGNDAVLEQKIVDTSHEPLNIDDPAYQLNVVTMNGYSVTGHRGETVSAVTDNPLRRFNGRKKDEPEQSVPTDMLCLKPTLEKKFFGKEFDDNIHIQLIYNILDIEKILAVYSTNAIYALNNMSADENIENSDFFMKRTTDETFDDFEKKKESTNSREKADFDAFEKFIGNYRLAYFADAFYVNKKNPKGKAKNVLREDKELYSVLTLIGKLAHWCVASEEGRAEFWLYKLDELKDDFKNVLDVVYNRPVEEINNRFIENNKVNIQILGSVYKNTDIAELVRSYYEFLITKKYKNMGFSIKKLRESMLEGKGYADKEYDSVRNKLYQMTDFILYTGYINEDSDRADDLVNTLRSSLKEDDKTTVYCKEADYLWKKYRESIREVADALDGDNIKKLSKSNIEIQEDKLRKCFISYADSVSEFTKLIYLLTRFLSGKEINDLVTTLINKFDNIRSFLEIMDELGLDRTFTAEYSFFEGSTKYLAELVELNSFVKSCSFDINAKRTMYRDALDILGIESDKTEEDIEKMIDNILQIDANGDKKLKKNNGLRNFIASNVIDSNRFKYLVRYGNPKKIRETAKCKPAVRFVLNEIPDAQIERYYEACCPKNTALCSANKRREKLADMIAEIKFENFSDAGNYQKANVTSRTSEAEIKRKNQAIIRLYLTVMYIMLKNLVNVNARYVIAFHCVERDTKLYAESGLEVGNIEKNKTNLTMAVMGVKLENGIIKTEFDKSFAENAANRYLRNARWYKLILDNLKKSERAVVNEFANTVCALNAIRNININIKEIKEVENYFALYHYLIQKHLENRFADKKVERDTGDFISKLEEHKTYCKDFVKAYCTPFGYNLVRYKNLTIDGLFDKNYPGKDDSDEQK

B1: target 1 C7U,G13A (mixed)
RNA 1: CACCCGUGCAAAAAUGCAGGGGUCUAAAACUGAGCGGAUAACCUCUCUAUGG
RNA 2: GGGAAUGGAUCCACAUCUACGAAUUCGUACCAUAGAGAAGUUAUUCGCUCACCGAGAUCGGAAGAGCACACGU
B2: target 1 insA 3' of 15,insG 3' of 1 (mixed)
RNA 1: CACCCGUGCAAAAAUGCAGGGGUCUAAAACUGAGCGGAUAACCUCUCUAUGG
RNA 2: GGGAAUGGAUCCACAUCUACGAAUUCGUACCAUAGAGAAGGUUAUCCGCUCAGCCGAGAUCGGAAGAGCACACGU
B3: target 1 insA 3' of 21,insA 3' of 3 (mixed)
RNA 1: CACCCGUGCAAAAAUGCAGGGGUCUAAAACUGAGCGGAUAACCUCUCUAUGG
RNA 2: GGGAAUGGAUCCACAUCUACGAAUUCGUACCAAUAGAGAGGUUAUCCGCUACACCGAGAUCGGAAGAGCACACGU
B4: target 1 insG 3' of 6,insA 3' of 6 (mixed)
RNA 1: CACCCGUGCAAAAAUGCAGGGGUCUAAAACUGAGCGGAUAACCUCUCUAUGG
RNA 2: GGGAAUGGAUCCACAUCUACGAAUUCGUACCAUAGAGAGGUUAUCCGAGCUCACCGAGAUCGGAAGAGCACACGU
B5: target 1 insA 3' of 17,insU 3' of 4 (mixed)
RNA 1: CACCCGUGCAAAAAUGCAGGGGUCUAAAACUGAGCGGAUAACCUCUCUAUGG
RNA 2: GGGAAUGGAUCCACAUCUACGAAUUCGUACCAUAGAAGAGGUUAUCCGCUUCACCGAGAUCGGAAGAGCACACGU
B6: target 1 insA 3' of 21,insU 3' of 20 (mixed)
RNA 1: CACCCGUGCAAAAAUGCAGGGGUCUAAAACUGAGCGGAUAACCUCUCUAUGG
RNA 2: GGGAAUGGAUCCACAUCUACGAAUUCGUACCAAUUAGAGAGGUUAUCCGCUCACCGAGAUCGGAAGAGCACACGU
B7: target 1 insU 3' of 21 (mixed)
RNA 1: CACCCGUGCAAAAAUGCAGGGGUCUAAAACUGAGCGGAUAACCUCUCUAUGG
RNA 2: GGGAAUGGAUCCACAUCUACGAAUUCGUACCUAUAGAGAGGUUAUCCGCUCACCGAGAUCGGAAGAGCACACGU
B8: target 1 C2G,C4U (mixed)
RNA 1: CACCCGUGCAAAAAUGCAGGGGUCUAAAACUGAGCGGAUAACCUCUCUAUGG
RNA 2: GGGAAUGGAUCCACAUCUACGAAUUCGUACCAUAGAGAGGUUAUCCGUUGACCGAGAUCGGAAGAGCACACGU
B9: target 1 insA 3' of 15,insA 3' of 2 (mixed)
RNA 1: CACCCGUGCAAAAAUGCAGGGGUCUAAAACUGAGCGGAUAACCUCUCUAUGG
RNA 2: GGGAAUGGAUCCACAUCUACGAAUUCGUACCAUAGAGAAGGUUAUCCGCUCAACCGAGAUCGGAAGAGCACACGU
B10: target 1 C6G,G12C (mixed)
RNA 1: CACCCGUGCAAAAAUGCAGGGGUCUAAAACUGAGCGGAUAACCUCUCUAUGG
RNA 2: GGGAAUGGAUCCACAUCUACGAAUUCGUACCAUAGAGAGCUUAUCGGCUCACCGAGAUCGGAAGAGCACACGU
B11: target 1 insU 3' of 18,insA 3' of 2 (mixed)
RNA 1: CACCCGUGCAAAAAUGCAGGGGUCUAAAACUGAGCGGAUAACCUCUCUAUGG
RNA 2: GGGAAUGGAUCCACAUCUACGAAUUCGUACCAUAUGAGAGGUUAUCCGCUCAACCGAGAUCGGAAGAGCACACGU
B12: target 1 C7G,A9U (mixed)
RNA 1: CACCCGUGCAAAAAUGCAGGGGUCUAAAACUGAGCGGAUAACCUCUCUAUGG
RNA 2: GGGAAUGGAUCCACAUCUACGAAUUCGUACCAUAGAGAGGUUUUGCGCUCACCGAGAUCGGAAGAGCACACGU
B13: target 1 insC 3' of 8,insA 3' of 6 (mixed)
RNA 1: CACCCGUGCAAAAAUGCAGGGGUCUAAAACUGAGCGGAUAACCUCUCUAUGG
RNA 2: GGGAAUGGAUCCACAUCUACGAAUUCGUACCAUAGAGAGGUUAUCCCAGCUCACCGAGAUCGGAAGAGCACACGU
B14: target 1 insC 3' of 15,insG 3' of 9 (mixed)
RNA 1: CACCCGUGCAAAAAUGCAGGGGUCUAAAACUGAGCGGAUAACCUCUCUAUGG
RNA 2: GGGAAUGGAUCCACAUCUACGAAUUCGUACCAUAGAGCAGGUUAGUCCGCUCACCGAGAUCGGAAGAGCACACGU
B15: target 1 C6A,G12A (mixed)
RNA 1: CACCCGUGCAAAAAUGCAGGGGUCUAAAACUGAGCGGAUAACCUCUCUAUGG
RNA 2: GGGAAUGGAUCCACAUCUACGAAUUCGUACCAUAGAGAGAUUAUCAGCUCACCGAGAUCGGAAGAGCACACGU
B16: target 1 insA 3' of 4,insU 3' of 1 (mixed)
RNA 1: CACCCGUGCAAAAAUGCAGGGGUCUAAAACUGAGCGGAUAACCUCUCUAUGG
RNA 2: GGGAAUGGAUCCACAUCUACGAAUUCGUACCAUAGAGAGGUUAUCCGCAUCAUCCGAGAUCGGAAGAGCACACGU
B17: target 1 C7U,G12C (mixed)
RNA 1: CACCCGUGCAAAAAUGCAGGGGUCUAAAACUGAGCGGAUAACCUCUCUAUGG
RNA 2: GGGAAUGGAUCCACAUCUACGAAUUCGUACCAUAGAGAGCUUAUUCGCUCACCGAGAUCGGAAGAGCACACGU
B18: target 1 complement block 6-10 (mixed)
RNA 1: CACCCGUGCAAAAAUGCAGGGGUCUAAAACUGAGCGGAUAACCUCUCUAUGG
RNA 2: GGGAAUGGAUCCACAUCUACGAAUUCGUACCAUAGAGAGGUAUAGGGCUCACCGAGAUCGGAAGAGCACACGU
B19: target 1 insU 3' of 18,insG 3' of 1 (mixed)
RNA 1: CACCCGUGCAAAAAUGCAGGGGUCUAAAACUGAGCGGAUAACCUCUCUAUGG
RNA 2: GGGAAUGGAUCCACAUCUACGAAUUCGUACCAUAUGAGAGGUUAUCCGCUCAGCCGAGAUCGGAAGAGCACACGU
B20: target 1 U8A,A20U (mixed)
RNA 1: CACCCGUGCAAAAAUGCAGGGGUCUAAAACUGAGCGGAUAACCUCUCUAUGG
RNA 2: GGGAAUGGAUCCACAUCUACGAAUUCGUACCUUAGAGAGGUUAACCGCUCACCGAGAUCGGAAGAGCACACGU
B21: target 1 C7G,G15A (mixed)
RNA 1: CACCCGUGCAAAAAUGCAGGGGUCUAAAACUGAGCGGAUAACCUCUCUAUGG
RNA 2: GGGAAUGGAUCCACAUCUACGAAUUCGUACCAUAGAAAGGUUAUGCGCUCACCGAGAUCGGAAGAGCACACGU
B22: target 1 A9U,G15U (mixed)
RNA 1: CACCCGUGCAAAAAUGCAGGGGUCUAAAACUGAGCGGAUAACCUCUCUAUGG
RNA 2: GGGAAUGGAUCCACAUCUACGAAUUCGUACCAUAGAUAGGUUUUCCGCUCACCGAGAUCGGAAGAGCACACGU
B23: target 1 insU 3' of 18,insC 3' of 1 (mixed)
RNA 1: CACCCGUGCAAAAAUGCAGGGGUCUAAAACUGAGCGGAUAACCUCUCUAUGG
RNA 2: GGGAAUGGAUCCACAUCUACGAAUUCGUACCAUAUGAGAGGUUAUCCGCUCACCCGAGAUCGGAAGAGCACACGU
B24: target 1 insU 3' of 15,insC 3' of 13 (mixed)
RNA 1: CACCCGUGCAAAAAUGCAGGGGUCUAAAACUGAGCGGAUAACCUCUCUAUGG
RNA 2: GGGAAUGGAUCCACAUCUACGAAUUCGUACCAUAGAGUAGCGUUAUCCGCUCACCGAGAUCGGAAGAGCACACGU
B25: target 1 insC 3' of 13,insG 3' of 10 (mixed)
RNA 1: CACCCGUGCAAAAAUGCAGGGGUCUAAAACUGAGCGGAUAACCUCUCUAUGG
RNA 2: GGGAAUGGAUCCACAUCUACGAAUUCGUACCAUAGAGAGCGUUGAUCCGCUCACCGAGAUCGGAAGAGCACACGU
B26: target 1 insA 3' of 15,insC 3' of 1 (mixed)
RNA 1: CACCCGUGCAAAAAUGCAGGGGUCUAAAACUGAGCGGAUAACCUCUCUAUGG
RNA 2: GGGAAUGGAUCCACAUCUACGAAUUCGUACCAUAGAGAAGGUUAUCCGCUCACCCGAGAUCGGAAGAGCACACGU
B27: target 1 insG 3' of 22,insC 3' of 18 (mixed)
RNA 1: CACCCGUGCAAAAAUGCAGGGGUCUAAAACUGAGCGGAUAACCUCUCUAUGG
RNA 2: GGGAAUGGAUCCACAUCUACGAAUUCGUACGCAUACGAGAGGUUAUCCGCUCACCGAGAUCGGAAGAGCACACGU

Experimental findings from publication PMC10786891, “Massively parallel profiling of RNA-targeting CRISPR-Cas13d” are described below.

In the data set the target is T1, EsCas13d, nuclease-dead. Briefly: crRNA (strand 1, pre-loaded); Mg2+; 40 mM Tris-HCl pH 7.5, 150 mM NaCl, 6 mM MgCl2, 1 mM DTT, 0.1% Tween-20, 0.2 mg/ml BSA; 25 C; 10 min per concentration, then washed. The settings on record: tags: His6-TwinStrep-SUMO cleaved; N-terminal SNAP kept (SNAP-Surface 488); label: 3' end held by stalled T7 RNA polymerase.
Regarding B1, the affinity, expressed as Kd, was 6.2 ± 0.7 nM.
Turning to B2, the Kd (as a rule, the constant that tells how readily two partners part at equilibrium) worked out at 5.96 ± 0.32 nM.
In the case of B3 it was 12.2 ± 0.6 nM; in that of B4, 10.6 ± 1.1 nM.
B5 registered a Kd of 44 ± 5 nM. Against the preceding molecule, the Kd is about 4.2-fold higher.
In the case of B6, the Kd was found to be 19.7 ± 1.9 nM.
In the case of B7 it was 24 ± 1.6 nM.
In the case of B8 it was 54 ± 16 nM; in that of B9, 6.4 ± 0.4 nM; in that of B10, 15.1 ± 0.7 nM.
The molecule B11 came in with a Kd of 33.5 ± 2.6 nM.
In the case of B12 it was 7.61 ± 0.27 nM; in that of B13, 17.7 ± 0.9 nM.
Take B14: binding was put at a Kd of 20.8 ± 1 nM.
The molecule B15 returned a Kd of 7.07 ± 0.35 nM. Against the preceding molecule, the Kd is about 2.9-fold lower.
In turn, B16 came in with a Kd of 7 ± 0.6 nM.
B17: binding was put at a Kd of 9.7 ± 0.7 nM.
In turn, B18 gave a Kd of 10.1 ± 0.6 nM.
As for B19, the dissociation constant Kd was 27.4 ± 1.3 nM.
Turning to B20, the Kd is 80 ± 21 nM.
In turn, B21 yielded a Kd of 22.5 ± 1.6 nM.
Turning to B22, binding was characterised by a dissociation constant (Kd) of 46 ± 11 nM.
B23 came in with a Kd of 23.5 ± 2 nM.
The molecule B24 returned a Kd of 19.3 ± 2.7 nM.
The molecule B25 yielded a Kd of 15.8 ± 1.7 nM.
The molecule B26 gave a Kd of 7.1 ± 0.8 nM. Against the preceding molecule, the Kd is about 2.2-fold lower.
For the molecule B27, the equilibrium dissociation constant (Kd) was determined as 73 ± 23 nM.
